Measurements as given in the RNAGym collection of RNA variant scans (doi:10.7554/elife.80360).

B1: HDV Ribozyme (parent)
chain: GGCCGGCAUGGUCCCAGCCUCCUCGCUGGCGCCGGCUGGGCAACAUUCCGAGGGGACCGUCCCCUCGGUAAUGGCGAAUGGGACCCA

Variants of: B1
Experiment: self-cleavage, relative activity (ratio to wild type); higher = more cleavage; co-transcriptional

Variant | self-cleavage
GGCCGGCAUGGUACCAGCCUCCUCGCUGGCGCCGGCUGGGCAACAUUCCGAGGGGACCGUCCCCUCGGUAAGGGCGAAUGGGACCCA [C13A U72G] | 0.0639
GGCCGGCAUGGUACCAGCCUCCGCGCUGGCGCCGGCUGGGCAACAUUCCGAGGGGACCGUCCCCUCGGUAAUGGCGAAUGGGACCCA [C13A U23G] | 0.0923
GGCCGGCAUGGUGCCAGCCUCCUCGCUGGCGCCGGCUGGGCAACAUUCCGAGGGGACCGUCCCCUCGGUAAUGGCGAAUGGGACCCA [C13G] | 0.078
GGCCGGCAUGGUACCAGCCCCCUCGCUGGCGCCGGCUGGGCAACAUUCCGAGGGGACCGUCCCCUCGGUAAUGGCGAAUGGGACCCA [C13A U20C] | 0.0405
GGCCGGCAUGGUACCAGCCUCCUCGCUGGCGCCGGCUGGGCAACAUUCCGAGGGGACCGCCCCCUCGGUAAUGGCGAAUGGGACCCA [C13A U60C] | 0.0573
GGCCGGCAUGGUACCAGCCUCCUCGCUGGCGCCGGCUGGGCAACAUUCCGAGGGGACCGGCCCCUCGGUAAUGGCGAAUGGGACCCA [C13A U60G] | 0.136
GGCCGGCAUGGUACCAGCCUCCUCGCUGGCGCCGGCUGGGCAACAUUCCGAGGGGACCGACCCCUCGGUAAUGGCGAAUGGGACCCA [C13A U60A] | 0.214
GGCCGGCAUGGUACCAGCCUCCUCGCUGGCGCCGGCUGGGCAACAUUCCGAGGGGACCGUCCCCUCGGUAAUGGCGAAUGAGACCCA [C13A G81A] | 0.16
GGCCGGCAUGGUACCAGCCUCCUCGCUGGCGCCGGCUGGGCAACAUUCCGAGGGGACCGUCCCCACGGUAAUGGCGAAUGGGACCCA [C13A U65A] | 0.348
GGCCGGCAUGGUACCAGCCUCCUCGCUGGCGCCGGCGGGGCAACAUUCCGAGGGGACCGUCCCCUCGGUAAUGGCGAAUGGGACCCA [C13A U37G] | 0.147
GGCCGGCAUGGUACCAGCCUCCUCGCUGGCGCCGGCAGGGCAACAUUCCGAGGGGACCGUCCCCUCGGUAAUGGCGAAUGGGACCCA [C13A U37A] | 0
GGCCGGCAUGGUGCCAGCCUCCUCGUUGGCGCCGGCUGGGCAACAUUCCGAGGGGACCGUCCCCUCGGUAAUGGCGAAUGGGACCCA [C13G C26U] | 0.208
GGCCGGCAUGGUGCCAGCCUCCUCGCUGGCGCCGGCUGGGCAACAUUCCGAGGGGACCGUCCCCUCGGUAAUGGCGAAUGGGUCCCA [C13G A83U] | 0
GGCCGGCAUGGUGCCAGCCUCCUCGCUGGCGCCGGCUGGGCAACAUUCCGAGGGGACCGUCCCCUCGGUAAUGGCGAAUGGGGCCCA [C13G A83G] | 0.0361
GGCCGGCAUGGUACCAGCCUCCUCGCUGGCGCCGGCUGGGCAACAUUCCGAGGGGACCGUCCCCUCUGUAAUGGCGAAUGGGACCCA [C13A G67U] | 0.17
GGCCGGCAUGGUACCAGCCUCCUCGCUGGCGCCGGCUGGGCAACAUUCCGAGGGGACCGUCCCCUCGGUAAUGGCGAACGGGACCCA [C13A U79C] | 0.0692

Variant | self-cleavage
GGCCGGCAUGGUGCCUGCCUCCUCGCUGGCGCCGGCUGGGCAACAUUCCGAGGGGACCGUCCCCUCGGUAAUGGCGAAUGGGACCCA [C13G A16U] | 0.19
GGCCGGCAUGGUGCCCGCCUCCUCGCUGGCGCCGGCUGGGCAACAUUCCGAGGGGACCGUCCCCUCGGUAAUGGCGAAUGGGACCCA [C13G A16C] | 0.0554
GGCCGGCAUGGUGCCGGCCUCCUCGCUGGCGCCGGCUGGGCAACAUUCCGAGGGGACCGUCCCCUCGGUAAUGGCGAAUGGGACCCA [C13G A16G] | 0.0831
GGCCGGCAUGGUACCAGCCUCCUCGCUGGCGCCGGCUGGGCAACACUCCGAGGGGACCGUCCCCUCGGUAAUGGCGAAUGGGACCCA [C13A U46C] | 0.203
GGCCGGCAUGGUACCAGCCUCCUCGCUGGCGCCGGCUGGGCAACAAUCCGAGGGGACCGUCCCCUCGGUAAUGGCGAAUGGGACCCA [C13A U46A] | 0.0346
GGCCGGCAUGGUACCAGCCUCCUCGCUGGCGCCGGCUGGGCAACAUUCCGAGGGGACCGUCCCCUCGGUAAUUGCGAAUGGGACCCA [C13A G73U] | 0.0615
GGCCGGCAUGGUACCAGCCUCCUCGCUGGCGCCGGCUGGGCAACAUUCCGAGGGGACCGUCCCCUCGGUAAUAGCGAAUGGGACCCA [C13A G73A] | 0.0863
GGCCGGCAUGGUACCAGCCUCCUCGCUGGCGCCGGCUGGGCAACAUUCCGAGGGGACCGUCCCCUCGGUAAUCGCGAAUGGGACCCA [C13A G73C] | 0.0767
GGCCGGCAUGGUACCAGCCUCCUCGCUGGCGCCGGCUGGGCAACAUUCCGAGGGGACCGUCCCCUCGGUAAUGGCGAAUGGAACCCA [C13A G82A] | 0.264
GGCCGGCAUGGUACCAGCCUCCUCGCUGGCGCCGGCUGGGCAACAUUCCGAGGGGACCGUCCCCUCGGUAAUGGCGAAUGGCACCCA [C13A G82C] | 0.17
GGCCGGCAUGGUGCCAGCCUCCUCGCUGGCGCCGGCUGGGCGACAUUCCGAGGGGACCGUCCCCUCGGUAAUGGCGAAUGGGACCCA [C13G A42G] | 0.178
GGCCGGCAUGGUGCCAGCCUCCUCGCUGGCGCCGGCUGGGCCACAUUCCGAGGGGACCGUCCCCUCGGUAAUGGCGAAUGGGACCCA [C13G A42C] | 0
GGCCGGCAUGGUGCCAGCCUCCUCGCUGGCGCCGGCUGGGCAACAUUCCGAGGGGACCGUCCCCUCGGUAAUGGCGGAUGGGACCCA [C13G A77G] | 0.199
GGCCGGCAUGGUGCCAGCCUCCUCGCUGGCGCCGGCUGGGCAACAUUCCGAGGGGACCGUCCCCUCGGUAAUGGCGCAUGGGACCCA [C13G A77C] | 0.0615
GGCCGGCAUGGUGCCAGCCUCCUCGCUGGCGCCGGCUGGGCAACGUUCCGAGGGGACCGUCCCCUCGGUAAUGGCGAAUGGGACCCA [C13G A45G] | 0.138
GGCCGGCAUGGUACCAGCCUCCUCGCAGGCGCCGGCUGGGCAACAUUCCGAGGGGACCGUCCCCUCGGUAAUGGCGAAUGGGACCCA [C13A U27A] | 0.831
